Source: article PMC7867654

Columns and labels:
Assay in all cases: EMSA
[1] = target: PRC2-AEBP2 (PRC2.2, 5-mer) (Homo sapiens, UniProt Q15910-2;O75530;Q15022;Q09028;Q6ZN18 1-751;1-441;1-739;1-425;1-517)
[2] = target: T1, PRC2-PHF19 (PRC2.1, 5-mer) (Homo sapiens, UniProt Q15910-2;O75530;Q15022;Q09028;Q5T6S3 1-751;1-441;1-739;1-425;1-580)
[3] = target: T1, PRC2-PHF19 (PRC2.1, 5-mer); remark: listed apart in the source

Binder	binding result [1]	binding signal [2]	binding result [3]
24 bp ATrich (dsDNA) DNA 1: TATATAATTATATTATATTAAAAT DNA 2: ATTTTAATATAATATAATTATATA	no binding	~5 fold weaker than 24 bp LHX6	–
36 bp LHX6 (dsDNA) DNA 1: TCCGCCCGCTCGACGCGCGCCGGGAAATTGAAGCGG DNA 2: CCGCTTCAATTTCCCGGCGCGCGTCGAGCGGGCGGA	no binding	–	–
36 bp ATrich (dsDNA) DNA 1: TATATAAATTAATATATAATTATATTATATTAAAAT DNA 2: ATTTTAATATAATATAATTATATATTAATTTATATA	no binding	–	–
48 bp LHX6 (dsDNA) DNA 1: GCGCTAGGAGCATCCGCCCGCTCGACGCGCGCCGGGAAATTGAAGCGG DNA 2: CCGCTTCAATTTCCCGGCGCGCGTCGAGCGGGCGGATGCTCCTAGCGC	no binding	–	–
48 bp ATrich (dsDNA) DNA 1: ATATTTTATATATATATAAATTAATATATAATTATATTATATTAAAAT DNA 2: ATTTTAATATAATATAATTATATATTAATTTATATATATATAAAATAT	no binding	–	–
24 bp LHX6 (dsDNA) DNA 1: ACGCGCGCCGGGAAATTGAAGCGG DNA 2: CCGCTTCAATTTCCCGGCGCGCGT	no binding	~5 fold tighter than 24 bp ATrich; weaker than 48 bp	–
96 bp (dsDNA) DNA 1: TGAATTAGTGTCAATATCCCTACTTCAATTTCCTAGTATATATTAAGTAGGTAGATGCTCCTAGTACTCTGGGTTTTATTTTCTCAACCACCACCA DNA 2: TGGTGGTGGTTGAGAAAATAAAACCCAGAGTACTAGGAGCATCTACCTACTTAATATATACTAGGAAATTGAAGTAGGGATATTGACACTAATTCA	–	–	binds
96 bp ATrich (dsDNA) DNA 1: TATATTTTATATATATATAAATTAATATATAATTATATTATATTAAAATTAATATTATATTTAAATTATTATATATATATAAATAATTTAATTATA DNA 2: TATAATTAAATTATTTATATATATATAATAATTTAAATATAATATTAATTTTAATATAATATAATTATATATTAATTTATATATATATAAAATATA	–	–	binds
12 bp GC (dsDNA) DNA 1: GGGCGGCCGCCC DNA 2: GGGCGGCCGCCC	–	–	no binding
